Assay results published in the supplement of paper PMC9112550, “Optimization of the antimicrobial peptide Bac7 by deep mutational scanning” (BMC Biology, 2022).

Tested on: Escherichia coli TOP10
Assay: shrunken log2 fold change of peptide-encoding DNA abundance (4.5 h post-induction vs induction); higher = less antimicrobial activity (less host growth inhibition)
Conditions: time post-induction: 4.5 h; library: site-saturation at positions 5, 18, 19, 20
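Note: peptides expressed intracellularly from a pBAD plasmid library in pooled LB shake-flask culture, induced with 0.3% L-arabinose, DNA abundance read by NGS, three biological replicates, DESeq2 with apeglm shrinkage.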

Sequence	shrunken log2 fold change
RRIRLRPPRLPRPRPRPPTVPRP	0.026
RRIRYRPPRLPRPRPRPSIRPRP	-0.116
RRIRWRPPRLPRPRPRPFEEPRP	0.43
RRIRRRPPRLPRPRPRPHDAPRP	0.197
RRIRTRPPRLPRPRPRPMWRPRP	-0.0938
RRIRTRPPRLPRPRPRPFDVPRP	-0.243
RRIRERPPRLPRPRPRPSQFPRP	-0.474
RRIRMRPPRLPRPRPRPGVVPRP	0.761
RRIRQRPPRLPRPRPRPTDAPRP	0.0862
RRIRNRPPRLPRPRPRPAFGPRP	-0.189
RRIRTRPPRLPRPRPRPDCIPRP	-0.0428
RRIRIRPPRLPRPRPRPEWNPRP	-0.332
RRIRYRPPRLPRPRPRPCATPRP	0.0757
RRIRCRPPRLPRPRPRPKDWPRP	0.378
RRIRDRPPRLPRPRPRPWAQPRP	0.18
RRIRDRPPRLPRPRPRPDMHPRP	0.633
RRIRQRPPRLPRPRPRPLWIPRP	-0.0179
RRIRNRPPRLPRPRPRPVAQPRP	0.089
RRIRWRPPRLPRPRPRPPPQPRP	0.905
RRIRRRPPRLPRPRPRPKTIPRP	0.0447
RRIRSRPPRLPRPRPRPCIRPRP	-0.416
RRIRWRPPRLPRPRPRPQMEPRP	0.0344
RRIRWRPPRLPRPRPRPPQCPRP	0.292
RRIRCRPPRLPRPRPRPRKWPRP	-0.0179
RRIRPRPPRLPRPRPRPQTIPRP	-0.0413

Sequence	shrunken log2 fold change
RRIRQRPPRLPRPRPRPITYPRP	-0.402
RRIRHRPPRLPRPRPRPFHEPRP	-0.2
RRIRTRPPRLPRPRPRPLCTPRP	-0.106
RRIRCRPPRLPRPRPRPLQNPRP	-0.0876
RRIRQRPPRLPRPRPRPPMGPRP	0.187
RRIRIRPPRLPRPRPRPYHVPRP	-0.186
RRIRFRPPRLPRPRPRPPEWPRP	0.139
RRIRSRPPRLPRPRPRPLSHPRP	-0.462
RRIRWRPPRLPRPRPRPKRSPRP	0.08
RRIRIRPPRLPRPRPRPASNPRP	-0.205
RRIRRRPPRLPRPRPRPPWIPRP	0.365
RRIRNRPPRLPRPRPRPSAQPRP	0.147
RRIRDRPPRLPRPRPRPVSAPRP	0.666
RRIRSRPPRLPRPRPRPAIHPRP	-0.912
RRIRCRPPRLPRPRPRPQTQPRP	0.308
RRIRYRPPRLPRPRPRPFFCPRP	-0.644
RRIRTRPPRLPRPRPRPKVTPRP	-0.026
RRIRKRPPRLPRPRPRPLVRPRP	0.114
RRIRIRPPRLPRPRPRPYGTPRP	-0.894
RRIRARPPRLPRPRPRPNPAPRP	0.796
RRIRNRPPRLPRPRPRPSYVPRP	-0.0484
RRIRHRPPRLPRPRPRPKCVPRP	-0.069
RRIRCRPPRLPRPRPRPIQNPRP	-0.538
RRIRQRPPRLPRPRPRPSGLPRP	-0.0802
RRIRHRPPRLPRPRPRPQRQPRP	0.0621

Sequence	shrunken log2 fold change
RRIRFRPPRLPRPRPRPATDPRP	-0.0766
RRIRWRPPRLPRPRPRPNGWPRP	0.185
RRIRKRPPRLPRPRPRPATLPRP	0.312
RRIRARPPRLPRPRPRPKCLPRP	0.613
RRIRQRPPRLPRPRPRPDDLPRP	0.0248
RRIRKRPPRLPRPRPRPGLEPRP	1.18
RRIRVRPPRLPRPRPRPWQYPRP	-0.0599
RRIRPRPPRLPRPRPRPWQHPRP	-0.105
RRIRSRPPRLPRPRPRPEFRPRP	0.15
RRIRGRPPRLPRPRPRPPLFPRP	0.974
RRIRWRPPRLPRPRPRPEMIPRP	0.0062
RRIRPRPPRLPRPRPRPMFPPRP	0.0316
RRIRFRPPRLPRPRPRPQQYPRP	-0.552
RRIRKRPPRLPRPRPRPGEFPRP	0.242
RRIRVRPPRLPRPRPRPEPNPRP	0.19
RRIRHRPPRLPRPRPRPFTCPRP	-0.231
RRIRRRPPRLPRPRPRPTCIPRP	-0.123
RRIRWRPPRLPRPRPRPHRAPRP	-0.0058
RRIRARPPRLPRPRPRPQDYPRP	-0.159
RRIRVRPPRLPRPRPRPIWWPRP	1.44
RRIRYRPPRLPRPRPRPDHNPRP	-0.217
RRIRPRPPRLPRPRPRPRFDPRP	0.197
RRIRGRPPRLPRPRPRPSNTPRP	-0.023
RRIRLRPPRLPRPRPRPNHPPRP	-0.498
RRIRFRPPRLPRPRPRPNPNPRP	-0.168

Sequence	shrunken log2 fold change
RRIRRRPPRLPRPRPRPPQFPRP	0.864
RRIRYRPPRLPRPRPRPLELPRP	0.0293
RRIRCRPPRLPRPRPRPTPVPRP	0.714
RRIRPRPPRLPRPRPRPMLEPRP	0.0664
RRIRERPPRLPRPRPRPGWHPRP	0.027
RRIRSRPPRLPRPRPRPSDTPRP	-0.396
RRIRYRPPRLPRPRPRPVYKPRP	-0.924
RRIRRRPPRLPRPRPRPETIPRP	0.175
RRIRCRPPRLPRPRPRPYFCPRP	-0.514
RRIRSRPPRLPRPRPRPMYCPRP	0.0069
RRIRTRPPRLPRPRPRPIMAPRP	-0.281
RRIRERPPRLPRPRPRPSFNPRP	-0.637
RRIRPRPPRLPRPRPRPFYQPRP	-0.142
RRIRPRPPRLPRPRPRPTWQPRP	0.543
RRIRQRPPRLPRPRPRPNDQPRP	-0.00615
RRIRHRPPRLPRPRPRPDYIPRP	-0.0135
RRIRLRPPRLPRPRPRPNTDPRP	-0.371
RRIRCRPPRLPRPRPRPEHNPRP	-0.377
RRIRMRPPRLPRPRPRPRQNPRP	0.62
RRIRNRPPRLPRPRPRPDFYPRP	-0.24
RRIRARPPRLPRPRPRPVVRPRP	0.481
RRIRFRPPRLPRPRPRPTMYPRP	-0.459
RRIRSRPPRLPRPRPRPRLEPRP	0.596
RRIRRRPPRLPRPRPRPVGQPRP	0.0153
RRIRNRPPRLPRPRPRPFPEPRP	-0.293

Sequence	shrunken log2 fold change
RRIRSRPPRLPRPRPRPVLWPRP	0.657
RRIRKRPPRLPRPRPRPLVSPRP	0.0109
RRIRPRPPRLPRPRPRPNWWPRP	0.717
RRIRRRPPRLPRPRPRPDHEPRP	0.152
RRIRSRPPRLPRPRPRPFPDPRP	-0.319
RRIRKRPPRLPRPRPRPKEGPRP	0.0503
RRIRGRPPRLPRPRPRPGAIPRP	1.44
RRIRARPPRLPRPRPRPIPPPRP	0.217
RRIRTRPPRLPRPRPRPPIEPRP	-0.0275
RRIRYRPPRLPRPRPRPVVQPRP	0.0013
RRIRCRPPRLPRPRPRPYNDPRP	-0.456
RRIRMRPPRLPRPRPRPHTDPRP	0.0445
RRIRFRPPRLPRPRPRPYMWPRP	-1.43
RRIRQRPPRLPRPRPRPFIAPRP	-0.277
RRIRARPPRLPRPRPRPCRIPRP	-0.0344
RRIRLRPPRLPRPRPRPYCPPRP	-0.24
RRIRARPPRLPRPRPRPVYYPRP	-0.518
RRIRARPPRLPRPRPRPPMKPRP	0.303
RRIRIRPPRLPRPRPRPSNWPRP	-0.257
RRIRNRPPRLPRPRPRPANMPRP	-0.205
RRIRRRPPRLPRPRPRPQAMPRP	0.0414
RRIRVRPPRLPRPRPRPTDIPRP	-0.402
RRIRVRPPRLPRPRPRPVCCPRP	0.0608
RRIRVRPPRLPRPRPRPMRQPRP	0.0326
RRIRKRPPRLPRPRPRPICYPRP	0.125
